In test [1] the target is T1, DLL3 on H82 xenograft tumor cells (UniProt Q9NYJ7 27-618, limits assumed).
T1 construct: whole, on cells; H82 is a human SCLC line by general knowledge
T1 sequence (looked up): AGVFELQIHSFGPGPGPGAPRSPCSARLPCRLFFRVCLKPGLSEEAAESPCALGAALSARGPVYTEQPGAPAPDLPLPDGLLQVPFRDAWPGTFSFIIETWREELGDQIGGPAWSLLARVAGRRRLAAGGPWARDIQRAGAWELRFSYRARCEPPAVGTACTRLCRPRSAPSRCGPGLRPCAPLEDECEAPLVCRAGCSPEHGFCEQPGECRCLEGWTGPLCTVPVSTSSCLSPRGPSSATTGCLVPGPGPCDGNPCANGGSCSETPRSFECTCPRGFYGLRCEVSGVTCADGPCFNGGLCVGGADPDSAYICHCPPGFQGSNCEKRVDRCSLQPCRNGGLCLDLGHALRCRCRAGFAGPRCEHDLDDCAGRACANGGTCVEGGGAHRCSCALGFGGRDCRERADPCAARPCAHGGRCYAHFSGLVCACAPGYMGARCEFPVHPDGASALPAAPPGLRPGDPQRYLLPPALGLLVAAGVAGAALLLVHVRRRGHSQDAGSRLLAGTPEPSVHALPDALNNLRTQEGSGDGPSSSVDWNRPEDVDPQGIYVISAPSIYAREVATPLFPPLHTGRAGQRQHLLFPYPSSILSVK
As to the kind of experiment: immunoPET imaging of athymic mice bearing right flank subcutaneous H82 xenografts after tail vein injection of the Zr-89 labelled antibody; time point not printed on the sheet.
Procedure: (§1) To ensure adequate binding to DLL3 in vivo, the three antibodies were first bioconjugated to p-SCN-Bn-DFO chelators and then radiolabeled with Zr-89 for injection via tail vein into athymic female mice bearing right flank subcutaneous H82 xenografts (250-300 Ci, 30 μg). ImmunoPET imaging was performed every 24 h until 120 h, when a terminal ex vivo biodistribution study was performed.

Test [2] concerns the target T1, DLL3 on H82 xenograft tumor cells. As to the kind of experiment: immunoPET and ex vivo biodistribution of the Zr-89 labeled antibody in mice with H82 xenografts.
Procedure: as §1

B1: [89Zr]Zr-DFO-J8 antibody (antibody, V domains shown)
VH: QVHLVQSGAEVKKPGASVKVSCKASGYTFTIYYIHWVRQAPGQGLEWMGIINPSGGSTSYAQKFQGRVTMTRDTSTSTVYMELSSLRSEDTAVYYCSGNDYVDYVTTDYYGMDVWGQGTTVTVSS
VL: DIQMTQSPSSLSASVGDRVTITCRASQGISNYLAWFQQKPGKAPKSLIYAASSLQSGVPSKFSGSGSGTDFTLTISSLQPEDFATYYCQQYNSSPYTFGQGTKLEIK
modifications: p-SCN-Bn-DFO chelator bioconjugated to the antibody (sites not given), radiolabeled with Zr-89
notes: also called J8 (monoclonal IgG4, DFO-conjugated, Zr-89 labeled)
Regarding B1, the binding result in test [1] is given as “binds”.

B2: E9 monoclonal IgG4 antibody bioconjugated to p-SCN-Bn-DFO and radiolabeled with Zr-89 (antibody, V domains shown)
VH: QVQLVQSGAEVKKPGASVKVSCKASGYTFTSYYMHWVRQAPGQGLEWMGVINSSGGSTSYAQKFQGRVTMTRDTSTSTVYMDLSSLRSEDTAVYYCARGYCTNGVYYDEDFDYWGQGTLVTVSS
VL: DIQMTQSPSSLSASVGDRVTITCRASQGISHYLAWFQQKPGKAPTSLIYAASSLQSGVPSKFSGSGSGTDFTLTISSLQPEDFATYYCQQYNSYPLTFGGGTKVEIK
modifications: p-SCN-Bn-DFO chelator bioconjugated to the antibody (sites not given), radiolabeled with Zr-89
As to B2, in test [2], the binding result was “binds”.

The record behind these values is patent publication US20240216557A1 (Memorial Sloan Kettering, published 2024).
